Test results from the supplement of paper PMC9233669.
This sample holds only a part of the variants without activity.

Key:
[1] = test system: biotinyl-Phe-oxazolone; assay: self-aminoacylation, catalytic enhancement (BFO) (fold over background); higher = more active; k-Seq, kA / k0A0; sequences stand for … in GGGAAUGGAUCCACAUCUACGAAUUC…UUCACUGCAGACUUGACGAAGCUG
In short: (§1)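 Mutagenized RNA pools with a 21-nt variable region (0.43 μM) were reacted with each biotinyl-aminoacyl-oxazolone at 2–1250 μM for 90 minutes at room temperature, in 50 μL HEPES/NaCl/KCl/MgCl2/CaCl2 buffer containing 5% acetonitrile at pH 6.9–7.0. RNA captured on streptavidin was quantified by triplicate qPCR and by Illumina sequencing. The fraction reacted for each sequence was fit to a pseudo-first-order model with bootstrapping, and catalytic enhancement is the median kA divided by the uncatalyzed rate, taken as the low-activity peak of a bimodal Gaussian fit.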

[2] = test system: biotinyl-Ile-oxazolone; assay: self-aminoacylation, catalytic enhancement (BIO) (fold over background); higher = more active; k-Seq, kA / k0A0; sequences stand for … in GGGAAUGGAUCCACAUCUACGAAUUC…UUCACUGCAGACUUGACGAAGCUG
In short: as §1

[3] = test system: biotinyl-Val-oxazolone; assay: self-aminoacylation, catalytic enhancement (BVO) (fold over background); higher = more active; k-Seq, kA / k0A0; sequences stand for … in GGGAAUGGAUCCACAUCUACGAAUUC…UUCACUGCAGACUUGACGAAGCUG
In short: as §1

[4] = test system: biotinyl-Met-oxazolone; assay: self-aminoacylation, catalytic enhancement (BMO) (fold over background); higher = more active; k-Seq, kA / k0A0; sequences stand for … in GGGAAUGGAUCCACAUCUACGAAUUC…UUCACUGCAGACUUGACGAAGCUG
In short: as §1

[5] = test system: biotinyl-Leu-oxazolone; assay: self-aminoacylation, catalytic enhancement (BLO) (fold over background); higher = more active; k-Seq, kA / k0A0; sequences stand for … in GGGAAUGGAUCCACAUCUACGAAUUC…UUCACUGCAGACUUGACGAAGCUG
In short: as §1

[6] = test system: biotinyl-Trp-oxazolone; assay: self-aminoacylation, catalytic enhancement (BWO) (fold over background); higher = more active; k-Seq, kA / k0A0; sequences stand for … in GGGAAUGGAUCCACAUCUACGAAUUC…UUCACUGCAGACUUGACGAAGCUG
In short: as §1

| Sequence | self-aminoacylation [1] | self-aminoacylation [2] | self-aminoacylation [3] | self-aminoacylation [4] | self-aminoacylation [5] | self-aminoacylation [6] |
| --- | --- | --- | --- | --- | --- | --- |
| AAAUUUGCUAAUAGUCGCCAG [Fam3.1 aminoacylation ribozyme variant] | 4.62 | 2.08 | 2.15 | 1.75 | 1.67 | 2.92 |
| AAAUUUGCUAAUAGUCGCGAG [Fam3.1 aminoacylation ribozyme variant] | 1.34 | 2.12 | 1.76 | 2.44 | 2.53 | 2.48 |
| AAAUUUGCUAAUAGUUGCAAG [Fam3.1 aminoacylation ribozyme variant] | 1.44 | 1.61 | 1.21 | 1.24 | 1.08 | 1.71 |
| AAAUUUGCUCAUAGUCGCAAG [Fam3.1 aminoacylation ribozyme variant] | 2.13 | 1.76 | 1.57 | 2.13 | 1.55 | 1.56 |
| AAAUUUGCUUAUAGUCGCAAG [Fam3.1 aminoacylation ribozyme variant] | 2.37 | 2.26 | 1.59 | 1.91 | 1.93 | 2.14 |
| AAAUUUGGUAAUAGUCGCAAG [Fam3.1 aminoacylation ribozyme variant] | 2.12 | 2.2 | 1.74 | 1.88 | 1.86 | 2.27 |
| AACUUCGCUAAUAGUCGCAAG [Fam3.1 aminoacylation ribozyme variant] | 14.5 | 2.98 | 3.03 | 3.5 | 3.44 | 3.06 |
| AACUUUGCUAAUAGUCGCAUG [Fam3.1 aminoacylation ribozyme variant] | 2.98 | 2.77 | 1.89 | 2.35 | 2.79 | 2.85 |
| AACUUUGCUAAUAGUCGCCAG [Fam3.1 aminoacylation ribozyme variant] | 10.9 | 2.68 | 2.87 | 2.59 | 3.5 | 2.35 |
| AACUUUGCUGAUAGUCGCAAG [Fam3.1 aminoacylation ribozyme variant] | 3.74 | 2.81 | 2.24 | 2.81 | 3.01 | 3.67 |
| AACUUUGGUAAUAGUCGCAAG [Fam3.1 aminoacylation ribozyme variant] | 3.84 | 2.58 | 2.15 | 2.22 | 3.08 | 2.24 |
| AAGAUUACUAAUAGUCGCAAG [Fam3.1 aminoacylation ribozyme variant] | 2.29 | 1.6 | 1.41 | 1.77 | 1.44 | 1.92 |
| AAGAUUGCUAAUAGUCCCAAG [Fam3.1 aminoacylation ribozyme variant] | 2.39 | 1.28 | 0.756 | 0.597 | 0.778 | 0.756 |
| AAGAUUGCUAAUAGUCGCAAA [Fam3.1 aminoacylation ribozyme variant] | 1.39 | 1.58 | 1.3 | 1.37 | 1.43 | 2.09 |
| AAGAUUGCUAAUAGUCGCUAG [Fam3.1 aminoacylation ribozyme variant] | 0.773 | 1.23 | 1.04 | 0.811 | 0.963 | 0.937 |
| AAGCACCUAGGUCAUCGGGUG [Fam2.2 aminoacylation ribozyme variant] | 23.6 | 2.84 | 2.91 | 3.13 | 2.66 | 4.45 |
| AAGCUUGCAAAUAGUCGCAAG [Fam3.1 aminoacylation ribozyme variant] | 7.03 | 2.14 | 2.25 | 2.53 | 2.07 | 2.14 |
| AAGCUUGCUAAAAGUCGCAAG [Fam3.1 aminoacylation ribozyme variant] | 5.12 | 2.16 | 1.79 | 3.31 | 3.1 | 3.43 |
| AAGCUUGCUAAGAGUCGCAAG [Fam3.1 aminoacylation ribozyme variant] | 3.44 | 2.51 | 2.44 | 2.23 | 2.66 | 3.08 |
| AAGCUUGCUAAUAGGCGCAAG [Fam3.1 aminoacylation ribozyme variant] | 1.46 | 1.38 | 1.16 | 1.12 | 1.66 | 1.2 |
| AAGGUUGCUAAUAGGCGCAAG [Fam3.1 aminoacylation ribozyme variant] | 1.11 | 1.19 | 0.796 | 0.729 | 1.17 | 1.17 |
| AAGGUUGCUAAUAGUCGCGAG [Fam3.1 aminoacylation ribozyme variant] | 2.49 | 1.56 | 1.5 | 1.64 | 0.991 | 1.64 |

| Sequence | self-aminoacylation [1] | self-aminoacylation [2] | self-aminoacylation [3] | self-aminoacylation [4] | self-aminoacylation [5] | self-aminoacylation [6] |
| --- | --- | --- | --- | --- | --- | --- |
| AAGGUUGCUAAUAGUCUCAAG [Fam3.1 aminoacylation ribozyme variant] | 2.46 | 1.13 | 0.996 | 1.05 | 0.944 | 1.52 |
| AAGGUUGCUAAUAUUCGCAAG [Fam3.1 aminoacylation ribozyme variant] | 1.6 | 1.59 | 1.26 | 1.22 | 2.03 | 1.22 |
| AAGGUUGCUAAUGGUCGCAAG [Fam3.1 aminoacylation ribozyme variant] | 1.68 | 1.06 | 1 | 0.949 | 0.828 | 0.994 |
| AAGGUUGGUAAUAGUCGCAAG [Fam3.1 aminoacylation ribozyme variant] | 2.09 | 1.48 | 1.38 | 1.59 | 1.55 | 2.15 |
| AAGUAUGAUAAUAGUCGCAAG [Fam3.1 aminoacylation ribozyme variant] | 1.35 | 1.22 | 1.28 | 1.13 | 1.1 | 1.2 |
| AAGUAUGCUAAUAAUCGCAAG [Fam3.1 aminoacylation ribozyme variant] | 2 | 1.45 | 1.05 | 1.28 | 1.14 | 1.39 |
| AAGUAUGCUAAUAGUCGAAAG [Fam3.1 aminoacylation ribozyme variant] | 15.7 | 1.48 | 1.21 | 1.7 | 1.31 | 4.62 |
| AAGUAUGCUAAUAGUCGCAAU [Fam3.1 aminoacylation ribozyme variant] | 1.96 | 1.9 | 1.52 | 2.13 | 1.64 | 1.75 |
| AAGUAUGCUAAUAGUCGCAUG [Fam3.1 aminoacylation ribozyme variant] | 1.66 | 1.34 | 1.09 | 1.45 | 1.55 | 1.84 |
| AAGUAUGCUAAUCGUCGCAAG [Fam3.1 aminoacylation ribozyme variant] | 2.35 | 1.81 | 1.56 | 1.71 | 1.37 | 1.76 |
| AAGUAUGCUCAUAGUCGCAAG [Fam3.1 aminoacylation ribozyme variant] | 4.07 | 1.83 | 1.3 | 1.5 | 1.3 | 2.78 |
| AAGUAUGCUGAUAGUCGCAAG [Fam3.1 aminoacylation ribozyme variant] | 1.92 | 1.84 | 1.65 | 1.94 | 1.91 | 1.96 |
| AAGUCUGCAAAUAGUCGCAAG [Fam3.1 aminoacylation ribozyme variant] | 1.15 | 0.902 | 0.671 | 0.888 | 0.891 | 1.22 |
| AAGUCUGCGAAUAGUCGCAAG [Fam3.1 aminoacylation ribozyme variant] | 8.07 | 1 | 0.979 | 1.76 | 1.38 | 1.2 |
| AAGUCUGCUAAUAGACGCAAG [Fam3.1 aminoacylation ribozyme variant] | 1.01 | 0.692 | 0.715 | 0.669 | 0.771 | 0.653 |
| AAGUCUGCUAAUAGUAGCAAG [Fam3.1 aminoacylation ribozyme variant] | 1.42 | 0.968 | 1.08 | 1.24 | 1.44 | 1.67 |
| AAGUCUGCUAAUAGUCACAAG [Fam3.1 aminoacylation ribozyme variant] | 12.6 | 1.24 | 1.25 | 1.95 | 1.3 | 3.73 |
| AAGUCUGCUAAUAGUCGCGAG [Fam3.1 aminoacylation ribozyme variant] | 5.39 | 1.26 | 1.33 | 1.77 | 1.36 | 3.06 |
| AAGUCUGCUAAUAGUCGCUAG [Fam3.1 aminoacylation ribozyme variant] | 3.35 | 0.989 | 0.983 | 0.995 | 1.29 | 1.81 |
| AAGUCUGCUCAUAGUCGCAAG [Fam3.1 aminoacylation ribozyme variant] | 8.38 | 1.16 | 1.18 | 1.29 | 1.08 | 4.23 |
| AAGUCUUCUAAUAGUCGCAAG [Fam3.1 aminoacylation ribozyme variant] | 3.19 | 2.06 | 1.52 | 1.56 | 1.83 | 2.07 |
